{"source": "paper PMC4514859", "system": "MtlR (Pseudomonas fluorescens DSM 50106)", "experiment": "EMSA", "details": "1x shift buffer A: 10 mM Tris-HCl pH 7.0, 5% glycerol, 1 mM TCEP, 50 ug/ml salmon sperm DNA, 4% TEG, 2 mM D-mannitol (absent in buffer B), 30 min on ice, gel …"}
{"substance": "PCR 210 (wild-type PmtlE operator)", "values": [{"measurement": "Kd", "setting": "with D-mannitol, kdiss 1.1e-4 s-1, t1/2 112 min", "result": 30.8, "unit": "nM"}, {"measurement": "Kd", "setting": "without mannitol, kdiss 1.2e-4 s-1, t1/2 99 min", "result": 32.6, "unit": "nM"}]}
